± gives the uncertainty stated by the source.
B1: Heterogeneous nuclear ribonucleoprotein U-like protein 2, residues 1 to 40; numbered along this chain, Q1KMD3 (parent)
chain: MEVKRLKVTELRSELQRRGLDSRGLKVDLAQRLQEALDAE

Variants of: B1
Assay: abundance fitness (aPCA) (normalised: wild type 0, dead -1); higher = more abundant; growth selection in yeast, the domain comes from the species named
Settings: Homo sapiens

Row | Variant | abundance fitness
1 | R17S | -0.092 ± 0.058
2 | E35I | -0.167 ± 0.065
3 | E35M | 0.009 ± 0.08
4 | E35V | -0.045 ± 0.059
5 | E35F | -0.21 ± 0.079
6 | Q16G | -0.171 ± 0.048
7 | Q16T | -0.03 ± 0.061
8 | Q16S | -0.032 ± 0.071
9 | Q16R | -0.104 ± 0.054
10 | Q16N | -0.074 ± 0.13
11 | Q16V | -0.077 ± 0.059
12 | R12Q | 0.036 ± 0.07
13 | R12A | -0.212 ± 0.053
14 | R12L | -0.495 ± 0.06
15 | R12D | -0.403 ± 0.073
16 | R12W | -0.845 ± 0.066
17 | R12S | -0.332 ± 0.065
18 | R23V | -0.019 ± 0.058
19 | R23E | 0.166 ± 0.065
20 | R23Q | 0.114 ± 0.054
21 | R23Y | 0.041 ± 0.24

Row | Variant | abundance fitness
22 | R23M | -0.232 ± 0.13
23 | R23L | -0.057 ± 0.056
24 | R23C | 0.062 ± 0.078
25 | R23T | 0.225 ± 0.066
26 | R23W | -0.185 ± 0.061
27 | S13F | -0.04 ± 0.13
28 | S13N | 0.016 ± 0.087
29 | S13L | 0.093 ± 0.058
30 | S13G | 0.035 ± 0.052
31 | S13W | -0.033 ± 0.055
32 | S13E | 0.262 ± 0.066
33 | A36Q | -0.211 ± 0.06
34 | A36T | -0.196 ± 0.072
35 | A36L | -0.622 ± 0.075
36 | A36R | -0.213 ± 0.049
37 | A36N | -0.294 ± 0.1
38 | A36M | -0.397 ± 0.069
39 | A36W | -0.422 ± 0.065
40 | A36V | -0.104 ± 0.053
41 | A36F | -0.278 ± 0.12
42 | A36G | -0.366 ± 0.05

Row | Variant | abundance fitness
43 | R32N | -0.395 ± 0.089
44 | R32Y | -0.191 ± 0.33
45 | R32T | -0.405 ± 0.073
46 | R32H | -0.399 ± 0.076
47 | R32L | -0.854 ± 0.063
48 | R32V | -0.643 ± 0.057
49 | R32D | -0.076 ± 0.1
50 | R32M | -0.567 ± 0.067
51 | Q34W | -0.624 ± 0.061
52 | Q34Y | -0.515 ± 0.058
53 | Q34I | -0.432 ± 0.11
54 | Q34T | -0.145 ± 0.062
55 | Q34L | -0.415 ± 0.055
56 | Q34G | -0.236 ± 0.049
57 | Q34P | -0.396 ± 0.066
58 | Q34E | -0.099 ± 0.058
59 | K7Q | 0.067 ± 0.08
60 | K7R | -0.153 ± 0.051
61 | K7F | -0.484 ± 0.12
62 | K7N | 0.305 ± 0.11
63 | K7D | 0.135 ± 0.072

Row | Variant | abundance fitness
64 | L37W | -0.266 ± 0.059
65 | L37R | -0.223 ± 0.048
66 | L37V | -0.078 ± 0.057
67 | L37C | -0.276 ± 0.097
68 | L37K | -0.199 ± 0.089
69 | L37I | 0.223 ± 0.14
70 | L37Q | -0.113 ± 0.061
71 | L37P | -0.282 ± 0.074
72 | L37T | -0.179 ± 0.054
73 | L37A | -0.337 ± 0.056
74 | K26A | -0.066 ± 0.056
75 | K26G | -0.178 ± 0.051
76 | K26R | -0.074 ± 0.051
77 | K26S | -0.189 ± 0.073
78 | K26D | -0.019 ± 0.09
79 | K26E | 0.107 ± 0.06
80 | K26L | -0.179 ± 0.053
81 | D21I | -0.871 ± 0.14
82 | D21T | -0.217 ± 0.099
83 | D21Y | -0.204 ± 0.35
84 | D21H | -0.422 ± 0.12
